We go through one molecule from patent US20170066836A1 (NATIONAL UNIVERSITY CORPORATION KOCHI UNIVERSITY, published 2017).

In general, koff refers to a measure of how fast the partners let go of each other. One may read the kon as a measure of how fast the partners come together. By Kd is commonly meant a measure of binding affinity in units of concentration.

For experiment [1], the target named is T1, recombinant Glypican-1 (R&D systems 4519-GP-050) (Homo sapiens (Human), UniProt P35052 24-530).
T1 construct: Bought protein
T1 sequence: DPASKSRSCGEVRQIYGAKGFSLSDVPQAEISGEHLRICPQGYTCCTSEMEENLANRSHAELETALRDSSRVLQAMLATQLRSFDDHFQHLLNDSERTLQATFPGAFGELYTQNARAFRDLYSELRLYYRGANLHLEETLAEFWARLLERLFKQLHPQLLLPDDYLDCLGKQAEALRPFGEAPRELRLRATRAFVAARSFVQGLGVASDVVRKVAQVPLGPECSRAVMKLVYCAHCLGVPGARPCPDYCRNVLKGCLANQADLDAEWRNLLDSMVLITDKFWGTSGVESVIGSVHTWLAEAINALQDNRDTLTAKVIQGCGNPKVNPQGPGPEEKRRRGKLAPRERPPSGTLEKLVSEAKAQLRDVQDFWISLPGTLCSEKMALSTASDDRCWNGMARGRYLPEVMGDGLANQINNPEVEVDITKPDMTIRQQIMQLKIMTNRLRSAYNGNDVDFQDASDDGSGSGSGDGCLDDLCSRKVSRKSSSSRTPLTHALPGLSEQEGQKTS
Kind of experiment: Biacore 3000 (SPR): antibody captured on rabbit anti-mouse IgG on a CM5 chip, recombinant Glypican-1 added at various concentrations; BIAevaluation 4.1. How it is done:
(§1) Affinity analysis of an anti-Glypican-1 antibody was measured using Biacore 3000. A rabbit anti-mouse IgG polyclonal antibody of the Mouse Antibody Capture Kit was solid-phased to a CM5 sensor tip, various anti-Glypican1 antibody clones were captured, recombinant Glypican-1 (R&D systems 4519-GP-050) was added at various concentrations as a ligand, and binding and dissociation were monitored. The obtained sensorgram was analyzed using BIAevaluation 4.1 software and a KD value was calculated (FIG. 12).
A general note: Surface plasmon resonance follows binding to a sensor surface in real time, without labels.

Experiment [2] concerns the target T1, recombinant Glypican-1 (R&D systems …). Kind of experiment: SPR (Biacore 3000): antibody captured by rabbit anti-mouse IgG on a CM5 chip, recombinant Glypican-1 added at various concentrations. How it is done: as §1
Experiment [3] concerns the target T2, human Glypican-3 expressed on 293 cells (pFLAG-CMV3 hGPC3) (human, UniProt P51654 25-554).
T2 construct: whole, on cells; FLAG-tagged through the vector; also called human GPC-3
Nature of the experiment: FACS on 293 cells transfected with pFLAG-CMV3 hGPC3. How it is done:
Subsequently, a characteristic of various anti-Glypican-1 antibodies that reacted with Glypican-1, but not with Glypican-3 was determined to prepare a chimeric protein expression vector having an amino acid sequence of the 430th or more position of Glypican-1 substituted with that of Glypican-3 (FIG. 17). Various expression vectors were transfected into the 293 cell and the reactivity with various anti-Glypican-1 antibodies was analyzed by FACS. Consequently, since the reactivity in FACS is not recognized in three clones #17(2-60), #2(1-5), and #10(1-57), it is believed that the epitope region in these clones is present in the 430th to the 530th corresponding to an extracellular region of Glypican-1 (FIG. 18).

In experiment [4] the target is T3, mouse Glypican-1 expressed on 293 cells (mouse, UniProt Q9QZF2 24-529).
T3 construct: whole, on cells; also called mouse GPC-1; mouse GPC1
T3 sequence (looked up): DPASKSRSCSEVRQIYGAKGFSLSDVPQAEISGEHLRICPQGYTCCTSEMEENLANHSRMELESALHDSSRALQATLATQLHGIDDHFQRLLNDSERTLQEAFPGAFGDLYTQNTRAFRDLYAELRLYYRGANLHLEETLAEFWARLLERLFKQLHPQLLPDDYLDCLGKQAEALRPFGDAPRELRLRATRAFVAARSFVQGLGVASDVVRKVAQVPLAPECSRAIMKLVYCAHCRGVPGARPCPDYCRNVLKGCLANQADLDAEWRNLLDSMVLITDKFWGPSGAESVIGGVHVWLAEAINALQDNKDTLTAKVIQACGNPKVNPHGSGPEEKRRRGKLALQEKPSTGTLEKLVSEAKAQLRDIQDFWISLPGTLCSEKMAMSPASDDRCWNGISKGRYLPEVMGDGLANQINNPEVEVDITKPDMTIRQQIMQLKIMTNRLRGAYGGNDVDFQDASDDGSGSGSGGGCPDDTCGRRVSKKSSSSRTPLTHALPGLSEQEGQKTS
Kind of experiment: FACS on 293 cells forcibly expressing mouse GPC1. As to the method:
A mouse Glypican-1 expression vector or an empty vector was transfected to the 293 cell using lipofectamine 2000 and the reactivity with various clones of an anti-Glypican-1 antibody was analyzed by FACS.

T2 sequence (P51654 25-554 limits assumed): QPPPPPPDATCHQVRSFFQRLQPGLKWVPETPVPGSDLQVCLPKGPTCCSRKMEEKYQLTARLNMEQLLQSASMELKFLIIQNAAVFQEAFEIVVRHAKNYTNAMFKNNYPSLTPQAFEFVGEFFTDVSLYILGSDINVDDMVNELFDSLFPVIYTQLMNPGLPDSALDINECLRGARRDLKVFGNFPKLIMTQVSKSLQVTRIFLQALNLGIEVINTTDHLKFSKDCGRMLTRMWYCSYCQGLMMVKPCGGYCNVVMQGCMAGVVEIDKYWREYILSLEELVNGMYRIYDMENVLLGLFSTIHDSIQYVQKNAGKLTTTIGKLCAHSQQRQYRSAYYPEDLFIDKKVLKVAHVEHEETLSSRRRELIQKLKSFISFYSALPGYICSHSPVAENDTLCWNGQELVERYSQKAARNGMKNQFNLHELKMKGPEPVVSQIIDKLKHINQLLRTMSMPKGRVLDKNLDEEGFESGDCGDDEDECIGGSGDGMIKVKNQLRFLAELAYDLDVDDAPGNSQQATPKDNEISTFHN

B1: anti-GPC-1 antibody 1-12 (antibody, V domains shown)
VH: AVTLDESGGGLQTPGRALSLVCKASGFTFSRYAMYWVRQAPGKGLEFVAGIGNTGRYTGYGSAVKGRATISRDSGQSTVRLQLNNLRAEDTGNYYCAKSVSPYCCDAADIDAWGHGTEVIVST
VL: ALTQPASVSANPGETVKITCSGGSSGYAYGWYQQKSPGSAPVTLLYSNNNRPSDIPSRFSGSKSGSTATLTITGVQAEDEAVYFCGSVDSSSYAGIFGAGTTLTV
notes: it was captured and detected with anti-mouse IgG and the control was mouse IgG2a; also called #4; clone 1-12
On to B1, for which, in experiment [1], the koff turned out to be 0.000488 s⁻¹ and the kon was found to be 187000 M⁻¹ s⁻¹. The equilibrium dissociation constant (Kd) in experiment [2] amounted to 2.61 nM. For the same molecule, the binding result in experiment [3] is recorded as “no binding”. The binding result in experiment [4] is reported as “binds”.
